# The NTF2 design screens of Basanta et al. (2020)
# Assay: protease stability score; higher = more stable; yeast display proteolysis, trypsin and chymotrypsin;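 further: log10 excess protease needed over predicted unfolded state with 0 meaning unfolded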
row,Sequence,protease stability score
1,DHDAAHQFKKMLDALRTNDEEHARRMADPNAKFQIGDKTYKGMDTFIRQLVREAREIKIHIDDIKVHDKGDKAVLNVNVKFSKNGEPDSRVLNFEFRAHNGHLKEIVVRDDK,0.757
2,DHDAKKRIHQLWHALQTGNPDEVVKQVDKDVKVRVGEKDIHGRDQVREDVEREQKDMRVEYKSIRVEMNGDKARVEVHYQHERDGQPRTHRADYEIKWQNGKVKEMRASQKP,-0.244
3,DHDALERFQEFLENLKSGNPHDLHNMLDKNASLQVGDKTVTGRDQIVDHWRRQREEWEVTYRSVDLKVSGDTVKADFDFQVDINGQPNRVSRQAHVKISNGKLKTLQYRVSEDVKRNIEG,-0.254
4,DHDALKRASQFLKAMEQGNEREAVRLVDENARVRYGDKQIHGNKQIRDWVRKMHEQARIRIEVTRVQATGDTVTVTAKVDVDVNGKPQTHDMVFRARVHNGHIKSAEFHFDEEFEKRMNS,1.32
5,DHDALRHATEILRARKTGDDKRIRELVDPNAHVVIGDKSLHGREQIVKFVTKENEEMSIQYRHVSTETRNGRVDIRMDADMRKNGTPDRVRQEMKAEFHNGRLQRMSVHDDK,-0.331
6,DHDAVRQARELYKVWQTGDPDKVRNMLDPNVRFRIGDKEIRGRESFAEELITQIKQSHVEVRHYSANANGNNVKARANVVIHVNGRPHEFSFIFRARVENGKFKQISVQVDDDLLRKLES,0.548
7,DHDIRELFKRLVDAISTNDPQTMNNNMDKDVEARVGDQDYKGRENMAHELVKTREKIRLEMHLNSLNNEGDYVRVEVEQVLEDNGQPDRSVMDAEWRADNGRVQEYHVDEKP,-0.146
8,DHDKQEFWNHLVEIFKSGNEDDWRKNFDPNAKWHIGDKRVHGREEAVEDFRRRREELRQNIESFTVDARGDKVTVHQVFVVEINGHPRRMSVNIRAKVHNGQIKEMDVRLSDEDKKKEKG,0.478
9,DHDLLTKIKTILELIKTGNFEEVRKNFDPNVDVHVGDKTIHGRERWAKELDKEVRELRWDIKIKRVKDRGDRAHFDMEATFEVNGRPANFRANMVVHMHNGRVKHMNIKIPEEDLKRQKS,0.823
10,DHDLNQQAQQWVRNFNNGDEDKLQDYADPNVRFQIGDEQVHGREEYKSRVKKKRKHARFRIRVREIDAQGEHVHVKADIIQNINGRPMDDHVIFHFEVRNGKLKSLKLRVDPEKQRELEK,0.417
11,DHDLQKTWKDQAAEALQTGDPREFEKMVDENVNVIYGDKTYHGRKQASNLAQRLQKQIDHIRLHSVSIRGDEVNVDLTVNVNGTEMRYHMTARVHNGKVKELKFDPDFVRKAQK,0.174
12,DHDLVKHLESFIKNLQDGDDDKLAKYADPNAHIEVGDKVVSGRKQLQEEVRRQRKRMRISLDVKDVKAHNGQADVTFDQRVEVNGRPWQNRYTVIFFLHNGTLREARFDIPEREQRKLES,0.189
13,DHDQRRQAKEMVHAMTKGDEDRLRELLDENAKADVGDSKVHGRTQFLRELRTTMEQSQLRLDSFDVKVKDGRVRMRFSFVEDHNGRPNHKNAELQLRLDNGKVQEVRQRDDG,0.539
14,DHEAEKRIKKWVDAIHTGDEEQLKRLADPNVKVNVGNYSVRGRENLADMVSRMRDEIRLTYRDVKMDVTGDHARMDADVERDHNGRPERFELKANFRWRNGKITEIDAHWHQ,1.42
15,DHEAEKRWTKLQEAIKYNNPQEAKHQMDPNARVRVGDKEFHGMDDFAKYQLDHQRKIEVDRKVKKVDVKNGSVKVVQDVENNNNGTPSRHVMDLRVEVHNGHIRNVRAETDK,-0.295
16,DHEAKDVFEELLRRMKSGDEDEMKKLVDKNVRYTVGDKTLHGQEEIARHWYEQVKDMRIDIKVKDIKVHNGRVDVKFTFRHEHNGNPDSDKRRVNVEARNGKMQAVDDQKDS,0.148
17,DHEAKEIAEKIQRALTSNDPDHLNRQLDPNVRLQIGDKEVEGRQEAHNWLQKVVDEQEISINISDINVNGNHIRIHAVVENQVNGRPFHYEVVIIIIIHNGRVRSQRYQLDEDQDRRIKQ,0.047
18,DHEALKVLHKFMEALNTGDPDQLNKNIDPNARFVVGDKTINGREQFREDQRRLKEQIRVYATIRTIRVEGDHANLTVEYEQDHNGKPDSNEVTVTAKLKNGKIQEVREDRKQ,-0.18
19,DHEANQIAREFVKAIRTNNPTRASQNMDPNVRVTVGDHVFHGREEVKTWIHRLNKEARIDIHINTIESQGDNAKVVFKYRVEVDGRPDSRNVIVDVHAHNGKMKEVVYRVDEDEQHELKK,0.368
20,DHEAQENAKHFIDALHTNDPRQVVEMIDPNARVNVGDKQLRGDSQVRKWWRRQNEEIRMHVKVDDIKVKGNNAVAKFKMEITHDGTPNDNHAEMTVTFHNGRATDLKVDEDK,0.017
21,DHEAQKALRDVIEAIRENNPDEVKKQLDKNATVRVGDKRLHGTEEQRREVQKKLDEIRIRYQDIKMETSGDTVRASIQFVENHNGEPQRDRVTASMSADNGRVKHFVVTETQ,-0.041
22,DHEAREIVEEYLKAIERNNPKKAQELVDPNVHFHYGDKRLDGREDLNEKIHRETKHQRVDIKSVSIDVQGDKVDVKVDVVDVHNGQPERYTFEVTYTFKNGQIQNADQKESG,1.02
23,DHEARKLMKRFFSAINHGDPDQIRKNVDKDVKAQVGDKTVHGREEWVKWMTRRLDEIKMHYDVTTIDVQGDKVHAQAKVRYDVDGRPITDQVTFTARIENGKITSLSLRMDPENQQKIEK,1.15
24,DHEARKVVKRFWEAWETGDPEELNKQVDPNVHVQIGDTRLKGRDDVVRHLLEERHEMRVDLDSMDVKATNGQVNARATARADVNGQPVTFSMEFRFKVRNGKITHIDWQFSDEDHRKRKG,0.81
25,DHEAVKLMERLIEALNTGDPDQLRRLADKDVRWRYGDKDVHGRESVVTQLKKRLEQSRFKVTDVDIKAQGDNVTADYRVIFEHNGKPDDVTVKVEAKVHNGRIKMMKIQTDK,0.623

row,Sequence,protease stability score
1,DHEDAEKMKDLLTAEQQNDPDKVKEQADPNAQFRIGDQKVHGRNQYARIVKTLMERADVHILRIDNKDHNGQVHVSIDRVIDYNGRPKRDTETATARFHNGRLKELHIQFDPKKYQELKK,0.027
2,DHEDKERASQAIEAWNTGDPREFEKQFDPNARVHVGDRHIHGREQFEDEMKRHKDESRYEISLRNVTVDNGRIKLDVVLSVDENGRPETQHLKIDLELHNGRVVSMQFNHKK,-0.209
3,DHEDLVKRFIETMKEIYHTGNFRELANLADEDVQIHVGDKTVTGREHLRKEQETTERHADHATMRVDEVEVDGDKARVVFTVTIQVNGEKRSDRLVVEFRVHNGQLRIKSMRQQ,1.05
4,DHEDMEKLAKDLNKAIEQGDPDRMRDMADENVDAKIGDKVFHGDENVRKMIKSIRDHADHLRVKDWRVKGEKIVIDVHVNHNGKSAKLDLKAQAHNGTFTTLKIDPQFQRSMES,-0.234
5,DHEDRAKDMLRRYEEALKSGNPDEARKLADEDVNFNIGDKRYRGRDDLATLVKQIRDSADHISITLETFTVQGNTITMDVSVVVDVNGKHISRRYNIIAQVDNGTLKLKSVQEH,-0.015
6,DHEDRELAKEWEKALHSGDRDQVHELMDPNASVRIGDKVFTGREEVSKHLKKIKDEMRIHIHSVHLEVQNGEVDNKNDLVADVNGVPVRVTVVVRITAQNGKMKELDMRFDPRQKEQMDR,0.093
7,DHEEKAKKFFDDLLRAVKHNDETQLERLFDKNVRFNVGEHNFRGREEFVKMVRTMVEQVDHVTATIVSIETNGDKVNLVAQWDMSHNGNSKRIRVLVVLDDNNGRVVAREMSEK,2.2
8,DHEELEVVKEWFDAIQKGDPKTIQELADKDAEFQIGDKTVRGREHLVETVERRKKHMEFQIRIDRMDVHGDKAVIDVTMSNKHNGQPSQDRYNVRVELHNGKIQNVDQSKRS,-0.033
9,DHEEMEKIAEEIIDILRTNDPDQMERLADENVRVRIGDKEVHGRESVSHAAQQLHDRVDHFDLKSWRRNGDKFQFEFVEHFNGQSRNVQVEMRFENGKIRHIVYTSR,0.226
10,DHEEQMEKFIKTLKKLMKNNDWETWASLADPNAEARYGDSEYHGREKIVTHMRKLQEHVDHADLKFRSVSLRNGEVTMRISFHVKVNGTDQSHEAKLVLEIDNGRAVIKKMVLD,0.795
11,DHEESKDIAEKAVKAIETGDPDKFVSNMDKDASARIGDKTYHGRENLRKAMEDFRNQVDHLRVQSYKVSGNTQKLDMRADFNGRTRVITVVMQMENGRVSFIRVHIE,-0.359
12,DHEETFRKLLHDLDEAMRRGDTKRIQDLADENVQLEVGDKTIHGREEFAKFWMDLQKRVDHLELHVEHIHVSGDRIRAKIVLVFHHNGQTRTRSAQVVLVQENGRNVFTKIQFN,1.17
13,DHEEVHKLAKKLAEAVVNGNEDRIRKFLKPDVEYKNIDEEYQGKQVAEVIVKTIKTKGVRLKVEEVKVEGDTVEAQYVFQVNGTKVTAHVRAEAKGGRVDKWQVHISDTAKKLRKEG,1.15
14,DHEEVKEFNKTLIKILETNDSKKLHELMDPNARIQIGDKDVSGRHNIHKLAEENKRRVDHFRVSRIDYHNGKVRADFTYVVNGQKHRVDMDIDITNGKIKRIIYHQR,0.011
15,DHEEVRQYEDAVEAEETGDKEKLQRYMDPNVKFHVGDKTLHGREDVARKQKEDRERIRIRYKSMDIKVRGDKVDFKMSFVVNHNGRPQRETRTFTIDLHNGTFKHADWKESG,-0.014
16,DHEFAKDAKEVLEENDFEREKQLFDKDASAHIGNTTYHGHEHVQTAIDIRKKRIDHREFHSITIHGDKVDVDLIVQFNGRKIRFDLTIQVHNGRVKEIKFQATNPSQERQLDEIMS,1.12
17,DHEIRHFAEQVVRVLNTGDEEEIEKLFDPNARITVGDKSYHGMDDYARKVKQTRDEMRFTIDVKDLKVSGDSVSMRAHVVHDHNGTPQKDTEQREFRVQGDRVKHMDVKSDG,-0.395
18,DHEKNKQHVDQFNEILKNGNPDEANKLADKDVEIEVGDKRYHGHEDFRKYQEEIAEQADHVKVTEVEVDGNKANVDVVLRINGKNLRRTFLLQIHNGRLKRLSFDPDQWDKARG,0.91
19,DHELEELAKRFLEAVLTGDEDQLRRNMDPNVKVDVGDKTVKGREEAAREIHETVHRSRIHVNHVDFRLNNGRETMRMDVVVDHNGRPQKDTWKMNQDVQGDKVKNINFRTDG,-0.353
20,DHELENLVEKIMSALTRNNPEDIRSLFDPNARFNIGDKTWNGMDRYITELKKEVDEWDMSVELHSVDIQGNKASAHVEQTAHHDGEPDSFEYTMKLDFHNGKARRQRVNSRK,-0.248
21,DHELVEQLHRFWTAVDENDPDKLKENADPNAHFVIGDKTYRGREDFARTIERELDTMEMRFDTMTVTIHNGRLDAKFRYVVRHNGNPQQHKVDAKAEMSNGKIQRLNMQKRP,-0.197
22,DHENKKRVEEFLKALERNDPERLNHLMDPNVNIIVGDQRFHGREDAARNMAHEQKEQRFEVEDYRISVHGDDVRVEMIVQAEINGRPFRFTLIVYARIHDGRIQTIEFRIDEDEKRRMDQ,0.895
23,DHEQLKNLKELLEAVQTGDEDQVKELMDPNAKFEYGNKSFHGRESMESYLKKLENEARVTVRSVTVRVSNGTISADVHLIFEVNGQPITVDAKFEAELHNGRVKHLYVRMPEETMKEIQG,-0.312
24,DHEREAKHFVDDWVRALRTGDSKTIEELMDPNVTLRVGDQKLHGRSQNSDQVRRWKERVDTIDVKVRSINKTGDHMRVHVDVVMDINGEKDNKELVINFDKHNGRLIVKHASYG,-0.113
25,DHERILQELLDRAVKMLNTGNEEHARKLAPPHARMVVGDKTIHGMENIAHEWQKVQDRVDHVEARVHSMSVDGDKFVVIVEVTLDINGRKQTQVVTFIAVKNNGQVYVKQINIS,-0.162
